The source of these data is the supplement of paper PMC12042874.

± gives the uncertainty stated by the source.

A short description of the data set: amyloid nucleation score (Sup35N fusion, yeast selection) (log enrichment); library NNK2; higher = more nucleation; inactive = no reads after selection. An outline of the steps:
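Nucleation score: DiMSum log enrichment of output over input reads, centred on the mode score of non-aggregating sequences. Only sequences with at least 100 input reads were kept. Reads came from Illumina sequencing of plasmid inserts before and after 7 days of growth at 30°C without adenine and uracil, in psi-negative yeast expressing Sup35N fused to peptides of 20 random codons after 24 hours of induction with 100 μM copper sulfate.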
As to WKKSMKIVNKYAVSLPDVGR, the amyloid nucleation score came to 0.29 ± 0.51.
With DLCQSHLPCHMRRTSFRQLP the figure was 0.606 ± 0.36; with EPMKSFSHNCLTQIST, -0.557 ± 1.1.
The substance TWYPIAFKTGCEMLTERSM had an amyloid nucleation score of 6.435 ± 0.035.
The substance SDIFRK displayed an amyloid nucleation score of -1.27 ± 0.62.
TCVKASNRG returned an amyloid nucleation score of -0.608 ± 0.55.
For the substance YMKKSMF, the amyloid nucleation score was -0.095 ± 1.1.
Regarding LCSRSYGFRFYFSSGAQSVR, the amyloid nucleation score stood at 0.541 ± 0.66.
As for ALIYCVFSFPFEAYDYMRFR, the amyloid nucleation score entry was “inactive”.
On to IGAMN, for which the amyloid nucleation score worked out at 0.586 ± 0.44.
For the substance FGIMNMKYGYTCMMSSSKSS, the amyloid nucleation score is -1.43 ± 1.1.
For the substance GVDLGIRRAFT, the amyloid nucleation score is 0.578 ± 0.62.
Substance VRLRASDKCLNV displayed an amyloid nucleation score of 1.59 ± 0.27.
Take KASLGLFYTWVQLSLHISCG: the amyloid nucleation score is -0.488 ± 1.
Consider MYCYSHDQCESLGQRSFGDT, for which the amyloid nucleation score was 0.218 ± 0.8.
LYLTYKVVHTSTPPVASYCE displayed an amyloid nucleation score of 5.855 ± 0.033.
For IIENDICHWSDICMEDLMDW, the amyloid nucleation score is 0.186 ± 0.54.
For CISSKHISVGVTDNLVVV, the amyloid nucleation score turned out to be 0.436 ± 0.8.
Regarding RNSPSRKNL, the amyloid nucleation score is -0.415 ± 0.36.
On to LNKNRHGVGIFGIIKYKDMT, for which the amyloid nucleation score result is “inactive”.
Next, RPWHDLLNLHLYGRFMYTIG: 0.415 ± 0.37; VHDQIPE: 0.071 ± 0.79; YAGFVFFRTL: “inactive”.
In the case of TLLLDQCDSRVDFWSNVP, the amyloid nucleation score was -0.088 ± 1.1.
Substance HYQYSFARTMVMLNMDWLML returned an amyloid nucleation score of 0.462 ± 0.43.
As for MCWVANNVTNPVEVEYERSL, the amyloid nucleation score is -0.821 ± 1.1.
On to SAKSNGVQ, for which the amyloid nucleation score came out at 1.16 ± 0.32.
On to VSSLFIEDFFFNRTSVMYIG, for which the amyloid nucleation score was determined as 0.103 ± 0.25.
Next, LEAMVTITT: 0.273 ± 0.39.
The substance IMTDPRSSLSLWCLNLSVNG displayed an amyloid nucleation score of 4.88 ± 0.082.
QPAVQGITRRKVCWVIMQNA came in with an amyloid nucleation score of 0.336 ± 0.46.
The substance GFWKTYNTFVLSWSRTNCLQ had an amyloid nucleation score of 0.431 ± 0.64.
As to IDFVVIKTLGMCDITYLYM, the amyloid nucleation score was -0.573 ± 1.1.
Consider NWVPLLFDY, for which the amyloid nucleation score result was “inactive”.
Take LYKVYVFYNNNVVMVRLALK: the amyloid nucleation score entry was “inactive”.
With ALLWWRVKLSAHYRYGLNYW the figure was 0.27 ± 0.4.
Take KHILGQTWHSHCWFHTFEGV: the amyloid nucleation score amounted to 2.26 ± 0.22.
With TLVCSKAFKYVGV, the amyloid nucleation score came out at 0.131 ± 0.46.
With FNLYYSRGLSSCLSYSRLEV the figure was -0.532 ± 1.
On to SNGMRNCKVCEFLLRLYASY, for which the amyloid nucleation score is -1.15 ± 0.55.
Substance RFGLGINLLIGVRLLCLALL showed an amyloid nucleation score of 0.043 ± 1.
As for VDLAR, the amyloid nucleation score entry was “inactive”.
Next, LCRMCIANCLMSCWESSYQV: 3.13 ± 0.17; SCVMGYKEVAFL: -0.081 ± 0.34; YYGCCMVLTEPVG: 6.29 ± 0.072.
In turn, LCCVVEN came in with an amyloid nucleation score of -0.603 ± 0.42.
As for ASGVIDIGYIIVEVVMIFYI, the amyloid nucleation score was -0.697 ± 0.5.
With DACWFMIGHIGFC, the amyloid nucleation score entry was “inactive”.
With MAKIFFPNRQVIPPTRMQRV the figure was 1.12 ± 0.47; with FECVAFSAV, -0.272 ± 0.28; with RFICSAPAVPILIICWS, -1.65 ± 0.76.
ITHQRSSACIVGFILRRRCN yielded an amyloid nucleation score of -0.369 ± 0.54.
Substance RPKYCQVVAGLVNYGVRLVV had an amyloid nucleation score of -0.262 ± 0.49.
ALLQICCSFIIYHTLLPAPA had an amyloid nucleation score of 6.11 ± 0.064.
TLLWYCTIADRNSNVRMVAS had an amyloid nucleation score of 0.966 ± 0.24.
As for FTSMLS, the amyloid nucleation score was 0.374 ± 0.64.
The substance HFKWNYYSYSVWEWVFEQLH displayed an amyloid nucleation score of -0.36 ± 0.63.
RFGRSQVRAKCRVDDDRWIR came in with an amyloid nucleation score of 4.63 ± 0.071.
In turn, RNGVNRLELGFLIETLHNAC gave an amyloid nucleation score of 4.622 ± 0.038.
GTIYLFRWSFMWRFWMGTGL: the amyloid nucleation score was -0.644 ± 0.54.
In turn, SDGSGNGEWSEMQVLWTRSN registered an amyloid nucleation score of 1.07 ± 0.33.
The substance HVWGQLSCFARVALSDRSKM came in with an amyloid nucleation score of 3.07 ± 0.16.
For the substance CFNSTDN, the amyloid nucleation score entry is “inactive”.
Next, YVLSYSCLDLYSIHL: 5.64 ± 0.073; LLWQTYIPNAGENAVSSQLF: -0.87 ± 1; SHEGGD: -0.856 ± 0.34.
VRIFSVCYKHLMGHCSSSA: the amyloid nucleation score is -0.398 ± 0.31.
With RRVMRLWMALPCNDMIGCIQ the figure was -0.476 ± 0.37; with SYYINFISVRILDLNKFNVQ, 5.03 ± 0.11; with GPLFRFFRHRAFLQSTFSA, -0.342 ± 0.24.
In turn, CCWVSLMRGNRLSTDSSNTL gave an amyloid nucleation score of -0.087 ± 0.37.
As for MSITSC, the amyloid nucleation score entry is “inactive”.
In turn, FQGEGISTAF had an amyloid nucleation score of -1.32 ± 0.5.
With VYRYIVIYPFVKWHKTDRFC the figure was -0.805 ± 0.33.
As for NGYRNFIRGHDSRFRGVTTT, the amyloid nucleation score stood at 4.66 ± 0.05.
In the case of GRCYIISCPESWHKPMYVAI, the amyloid nucleation score is 0.142 ± 0.34.
NSYIRHSFLQTRFISTNV registered an amyloid nucleation score of -0.306 ± 0.36.
Next, YESLYVKLVAEPQIRCMYYS: -0.152 ± 0.34; FTNAPVLFVN: “inactive”; NIYLFMLMWDWTSYMALCCV: 3.94 ± 0.081.
Turning to RARGIV, the amyloid nucleation score is -0.664 ± 0.55.
Turning to FMFPILDSVTPIFDIVITGD, the amyloid nucleation score result is “inactive”.
Next, AFAFINIWKHLYIFQGQPSL: “inactive”; SLVFVFVITKT: 5.526 ± 0.05; VMNSVHVFQYTSCCLILVGL: 6.945 ± 0.062.
Take ILTGR: the amyloid nucleation score is -0.16 ± 0.55.
VRIFWTVTLFDCRLLRWLSN had an amyloid nucleation score of 0.045 ± 0.38.
For the substance GSVRSMVGFNACRTSLYESC, the amyloid nucleation score was 0.012 ± 1.
Consider YDYVEGAEPPLGDGCIVVFH, for which the amyloid nucleation score is -0.451 ± 0.79.
Consider NYLDLFTRVWKS, for which the amyloid nucleation score result is “inactive”.
Next, GFWFFIYVDCVLCVSPTRIN: -0.663 ± 0.56.
As for GNRSTVLRSNLDVYLQDGTV, the amyloid nucleation score was 1.51 ± 0.32.
Regarding YSTYRASVGFARRGMPLPIL, the amyloid nucleation score amounted to 0.015 ± 0.76.
For the substance TSQTCLEVSRSCCVGMRKSK, the amyloid nucleation score came out at 0.192 ± 1.
With KMFVILIIHTLLGAITAVCG the figure was 0.186 ± 0.76.
On to TFGRRATDNAASMPVSMRGR, for which the amyloid nucleation score worked out at 0.424 ± 0.64.
As to AYILAVVCPVVRKIGSQYDE, the amyloid nucleation score came out at 1.87 ± 0.15.
TYTKFISILRSALSLMYLAS: the amyloid nucleation score came out at 0.972 ± 0.67.
For ANSNIHLVPMTLSTDEVPLP, the amyloid nucleation score stood at 0.413 ± 0.43.
Take YALVVLIWT: the amyloid nucleation score was -1.43 ± 1.1.
The substance AITSLYSRSLFLVLTCTVCF gave an amyloid nucleation score of 5.683 ± 0.055.
Regarding LRIGRYQN, the amyloid nucleation score entry was “inactive”.
The substance TLWVWVCCFQDWCSVSRGGR returned an amyloid nucleation score of 8.892 ± 0.03.
